B1: Kinesin-like protein KIF16B, residues 1213 to 1273; numbered along this chain, Q96L93 (parent)
chain: ETWTVFRRYSRFREMHKTLKLKYAELAALEFPPKKLFGNKDERVIAERRSHLEKYLRDFFS

± gives the uncertainty stated by the source.

In this data set the parent is B1. The data set is described as follows: abundance fitness (aPCA) (normalised: wild type 0, dead -1); higher = more abundant; growth selection in yeast, the domain comes from the species named. As to conditions: Homo sapiens.
On to ETWTVFRRYSRFREMHKTLKLKYAELAALEFPPKKLFGNKDERVIAERRSHLEKYLYDFFS [R57Y], for which the abundance fitness is -0.437 ± 0.18.

As to ETWTVFRRYSRFREMHKTLKLKYAELAALEFPPKKLFGNKDERVIAERRSHLEKYLIDFFS [R57I], the abundance fitness was -0.388 ± 0.095.

On to ETWTVFRRYSRFREMHKTLKLKYAELAALEFPPKKLFGNKDERVIAERRSHLEKYLWDFFS [R57W], for which the abundance fitness was -0.447 ± 0.11.

Take ETWTVFRRYSRFREMHKTLKLKYAELAALEFPPKKLFGNKDERVIAERRSHLEKYLLDFFS [R57L]: the abundance fitness is -0.368 ± 0.059.

ETWTVFRRYSRFREMHKTLKLKYAELAALEFPPKKLFGNKDERVIAERRSHLEKYLSDFFS [R57S]: the abundance fitness is -0.427 ± 0.063.

Consider ETWTVFRRYSRFREMHKTLKLKYAELAALEFPPKKLFGNKDERVIAERRSHLEKYLKDFFS [R57K], for which the abundance fitness is -0.094 ± 0.11.

ETWTVFRRYSRFREMHKTLKLKYAELAALEFPPKKLFGNKDERVIAERRSHLEKYLVDFFS [R57V]: the abundance fitness is -0.412 ± 0.093.

For the variant ETWTVFRRYSRFREMHKTLKLKYAELAALEFPPKKLFGNKDERVIAERRSHLEKYLQDFFS [R57Q], the abundance fitness was -0.776 ± 0.14.

Consider ETWTVFRRYSRFREMHKTLKLKYAELAALEFPPKKLFGNKDERVIAERRSHLEKYLFDFFS [R57F], for which the abundance fitness was -0.33 ± 0.1.

Consider ETWTVFRRYSRFREMHKTLKLKYAELAALEFPPKKLFGNKDERVIAERRSHLEKYLPDFFS [R57P], for which the abundance fitness was -0.087 ± 0.094.

As to ETWTVFRRYSRFREMHKTLKLKYAELAALEFPPKKLFGNKDERVIAERRSHLEKYLADFFS [R57A], the abundance fitness is -0.444 ± 0.085.

As for ETWTVFRRYSRFREMHKTLKLKYAELAALEFPPKKLFGNKDERVIAERRSHLEKYLDDFFS [R57D], the abundance fitness was -0.712 ± 0.16.

Turning to ETWTVFRRYSRFREMHKTLKLKYAELAALEFPPKKLFGNKDERVIAERRSHLEKYLCDFFS [R57C], the abundance fitness was -0.239 ± 0.07.

With ETWTVFRRYSRFREMHKTLKLKYAELAALEFPPKKLFGNKDERVIAERRSHLEKYLNDFFS [R57N], the abundance fitness is -0.395 ± 0.11.

For the variant ETWTVFRRYSRFREMHKTLKLKYAELAALEFPPKKLFGNKDERVIAERRSHLEKYLHDFFS [R57H], the abundance fitness is -0.6 ± 0.25.

Consider ETWTVFRRYSRFREMHKTLKLKYAELAALEFPPKKLFGNKDERVIAERRSHLEKYLEDFFS [R57E], for which the abundance fitness was -0.636 ± 0.11.

In the case of ETWTVFRRYSRFREMHKTLKLKYAELAALEFPPKKLFGNKDERVIAERRSHLEKYLTDFFS [R57T], the abundance fitness was -0.309 ± 0.06.

For ETWTVFRRYSRFREMHKTLKLKYAELAALEFPPKKLFGNKDERVIAERRSHLEKYLMDFFS [R57M], the abundance fitness was -0.468 ± 0.12.

In the case of ETWTVFRRYSRFREMHKTLKLKYAELAALEFPPKKLFGNKDERVIAERRSHLEKVLRDFFS [Y55V], the abundance fitness was -0.082 ± 0.065.

With ETWTVFRRYSRFREMHKTLKLKYAELAALEFPPKKLFGNKDERVIAERRSHLEKWLRDFFS [Y55W], the abundance fitness was 0.281 ± 0.07.

Consider ETWTVFRRYSRFREMHKTLKLKYAELAALEFPPKKLFGNKDERVIAERRSHLEKYCRDFFS [L56C], for which the abundance fitness was determined as 0.032 ± 0.08.

On to ETWTVFRRYSRFREMHKTLKLKYAELAALEFPPKKLFGNKDERVIAERRSHLEKYQRDFFS [L56Q], for which the abundance fitness was found to be 0.163 ± 0.094.

Turning to ETWTVFRRYSRFREMHKTLKLKYAELAALEFPPKKLFGNKDERVIAERRSHLEKYNRDFFS [L56N], the abundance fitness is -0.518 ± 0.46.

As to ETWTVFRRYSRFREMHKTLKLKYAELAALEFPPKKLFGNKDERVIAERRSHLEKYPRDFFS [L56P], the abundance fitness was -0.308 ± 0.13.

Regarding ETWTVFRRYSRFREMHKTLKLKYAELAALEFPPKKLFGNKDERVIAERRSHLEKYRRDFFS [L56R], the abundance fitness was -0.584 ± 0.066.

Turning to ETWTVFRRYSRFREMHKTLKLKYAELAALEFPPKKLFGNKDERVIAERRSHLEKYVRDFFS [L56V], the abundance fitness was -0.019 ± 0.053.

Regarding ETWTVFRRYSRFREMHKTLKLKYAELAALEFPPKKLFGNKDERVIAERRSHLEKYTRDFFS [L56T], the abundance fitness is -0.001 ± 0.081.

Consider ETWTVFRRYSRFREMHKTLKLKYAELAALEFPPKKLFGNKDERVIAERRSHLEKYKRDFFS [L56K], for which the abundance fitness was -0.567 ± 0.14.

For the variant ETWTVFRRYSRFREMHKTLKLKYAELAALEFPPKKLFGNKDERVIAERRSHLEKYDRDFFS [L56D], the abundance fitness was -0.343 ± 0.13.

Consider ETWTVFRRYSRFREMHKTLKLKYAELAALEFPPKKLFGNKDERVIAERRSHLEKYSRDFFS [L56S], for which the abundance fitness was -0.453 ± 0.043.

On to ETWTVFRRYSRFREMHKTLKLKYAELAALEFPPKKLFGNKDERVIAERRSHLEKYMRDFFS [L56M], for which the abundance fitness is -0.191 ± 0.081.

For ETWTVFRRYSRFREMHKTLKLKYAELAALEFPPKKLFGNKDERVIAERRSHLEKYERDFFS [L56E], the abundance fitness is -1.2 ± 0.3.

In the case of ETWTVFRRYSRFREMHKTLKLKYAELAALEFPPKKLFGNKDERVIAERRSHLEKYYRDFFS [L56Y], the abundance fitness is -0.263 ± 0.19.

With ETWTVFRRYSRFREMHKTLKLKYAELAALEFPPKKLFGNKDERVIAERRSHLEKYIRDFFS [L56I], the abundance fitness is -0.011 ± 0.087.

ETWTVFRRYSRFREMHKTLKLKYAELAALEFPPKKLFGNKDERVIAERRSHLEKYLRDFFN [S61N]: the abundance fitness was -0.23 ± 0.11.

Regarding ETWTVFRRYSRFREMHKTLKLKYAELAALEFPPKKLFGNKDERVIAERRSHLEKYLRDFFR [S61R], the abundance fitness came out at 0.143 ± 0.14.

Take ETWTVFRRYSRFREMHKTLKLKYAELAALEFPPKKLFGNKDERVIAERRSHLEKYLRDFFA [S61A]: the abundance fitness is -0.263 ± 0.23.

Turning to ETWTVFRRYSRFREMHKTLKLKYAELAALEFPPKKLFGNKDERVIAERRSHLEKYLRDFFK [S61K], the abundance fitness was -0.025 ± 0.087.

Take ETWTVFRRYSRFREMHKTLKLKYAELAALEFPPKKLFGNKDERVIAERRSHLEKYLRDFFL [S61L]: the abundance fitness is -0.038 ± 0.36.

In the case of ETWTVFRRYSRFREMHKTLKLKYAELAALEFPPKKLFGNKDERVIAERRSHLEKYLRDFFC [S61C], the abundance fitness was -0.412 ± 0.32.

For ETWTVFRRYSRFREMHKTLKLKYAELAALEFPPKKLFGNKDERVIAERRSHLEKYLRDFFQ [S61Q], the abundance fitness is 0.11 ± 0.17.

As for ETWTVFRRYSRFREMHKTLKLKYAELAALEFPPKKLFGNKDERVIAERRSHLEKYLRDFFM [S61M], the abundance fitness is -0.073 ± 0.19.

For ETWTVFRRYSRFREMHKTLKLKYAELAALEFPPKKLFGNKDERVIAERRSHLEKYLRDFFP [S61P], the abundance fitness was -0.337 ± 0.1.

Consider ETWTVFRRYSRFREMHKTLKLKYAELAALEFPPKKLFGNKDERVIAERRSHLEKYLRDFFG [S61G], for which the abundance fitness is -0.09 ± 0.18.
